Assay results as given in the supplement of paper PMC7125110.
± gives the standard error. For part of these data: Variants at the floor of the assay were thinned out.

B1: glmS ribozyme (parent)
chain: AUAAAAGCGCCAGAACUACAGAAAUGUAGUUGACGAGGAGGAGGUUUAUCGAAUUUUCGGCGGAUGCCUCCAAA

What was measured:
Conditions in all cases: with glucosamine-6-phosphate
glucosamine-6-phosphate [1] = variants of: B1; experiment: kcat; higher = faster cleavage; RNA array
In short: (§1)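 Using a hybridised Cy3 probe at 37 °C, barcoded ribozyme variants transcribed in situ by E. coli RNA polymerase on sequenced MiSeq chips were monitored across tiles imaged over ~14 h. The flow contained glucosamine-6-phosphate from 40 μM to 10 mM in HEPES/KCl/Mg(OAc)2 buffer. Signals were normalised to baseline and to non-cleaving reference variants before per-tile medians were fit to one- or two-exponential decays to yield kobs. Weighted Michaelis–Menten fits across concentrations gave kcat and KM.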

glucosamine-6-phosphate [2] = variants of: B1; experiment: self-cleavage kobs at 640 uM GlcN6P; higher = faster cleavage; RNA array
In short: as §1

glucosamine-6-phosphate [3] = variants of: B1; experiment: self-cleavage kobs at 2500 uM GlcN6P; higher = faster cleavage; RNA array
In short: as §1

glucosamine-6-phosphate [4] = variants of: B1; experiment: self-cleavage kobs at 10000 uM GlcN6P; higher = faster cleavage; RNA array
In short: as §1

glucosamine-6-phosphate [5] = variants of: B1; experiment: self-cleavage kobs at 40 uM GlcN6P; higher = faster cleavage; RNA array
In short: as §1

glucosamine-6-phosphate [6] = variants of: B1; experiment: self-cleavage kobs at 160 uM GlcN6P; higher = faster cleavage; RNA array
In short: as §1

glucosamine-6-phosphate [7] = variants of: B1; experiment: KM; higher = weaker cofactor use; RNA array
In short: as §1

Row | Variant | kcat (glucosamine-6-phosphate [1]) | self-cleavage kobs at 640 uM GlcN6P (glucosamine-6-phosphate [2]) | self-cleavage kobs at 2500 uM GlcN6P (glucosamine-6-phosphate [3]) | self-cleavage kobs at 10000 uM GlcN6P (glucosamine-6-phosphate [4]) | self-cleavage kobs at 40 uM GlcN6P (glucosamine-6-phosphate [5]) | self-cleavage kobs at 160 uM GlcN6P (glucosamine-6-phosphate [6]) | KM (glucosamine-6-phosphate [7])
1 | A15U U69A | 7.22e-05 ± 1.3e-05 s⁻¹ | 4.48e-05 ± 1.1e-05 s⁻¹ | 8.33e-05 ± 1e-05 s⁻¹ | 5.39e-05 ± 1.2e-05 s⁻¹ |  |  | 
2 | C16A A64U | < 1e-05 s⁻¹ |  |  |  | < 1e-05 s⁻¹ | < 1e-05 s⁻¹ | 
3 | C16A U31A | 0.0016 ± 0.00038 s⁻¹ | 0.000194 ± 5.1e-05 s⁻¹ | 0.000585 ± 0.00016 s⁻¹ | 0.00119 ± 0.00027 s⁻¹ |  | 8.65e-05 ± 2.4e-05 s⁻¹ | 3990 ± 1400 µM
4 | C16G U57A | 5.68e-05 ± 5.7e-06 s⁻¹ |  | 3.99e-05 ± 1.7e-05 s⁻¹ | 4.85e-05 ± 8.9e-06 s⁻¹ |  |  | 1570 ± 780 µM
5 | C16U A52C | 1.88e-05 ± 3.1e-06 s⁻¹ |  |  |  |  |  | 
6 | C16U A52G | 0.00224 ± 0.00092 s⁻¹ | 0.000237 ± 5.8e-05 s⁻¹ | 0.000576 ± 7.9e-05 s⁻¹ | 0.0016 ± 0.00017 s⁻¹ | 3.86e-05 ± 9e-06 s⁻¹ | 9.03e-05 ± 2.1e-05 s⁻¹ | 
7 | C16U A52U | 0.00041 ± 1.4e-05 s⁻¹ | 4.82e-05 ± 1.2e-05 s⁻¹ | 0.000132 ± 2.2e-05 s⁻¹ | 0.000274 ± 2.9e-05 s⁻¹ | < 1e-05 s⁻¹ |  | 5030 ± 320 µM
8 | C16U G59U | 4.21e-05 ± 7.7e-06 s⁻¹ |  | 4.99e-05 ± 1.2e-05 s⁻¹ | 3.73e-05 ± 7.2e-06 s⁻¹ |  |  | 
9 | G29A U56C | 0.000719 ± 0.00026 s⁻¹ | 0.000156 ± 2.2e-05 s⁻¹ | 0.000226 ± 3.3e-05 s⁻¹ | 0.000619 ± 6.7e-05 s⁻¹ |  | 3.68e-05 ± 1.1e-05 s⁻¹ | 
10 | C16U C68G | 8.6e-05 ± 6.4e-06 s⁻¹ | 5.77e-05 ± 1e-05 s⁻¹ | 8.4e-05 ± 1e-05 s⁻¹ | 7.86e-05 ± 9.3e-06 s⁻¹ |  |  | 307 ± 140 µM
11 | C16A C71A | 0.000128 ± 2e-05 s⁻¹ | 7.22e-05 ± 1.1e-05 s⁻¹ | 0.000187 ± 3.1e-05 s⁻¹ | 0.000114 ± 1.2e-05 s⁻¹ |  | 3.26e-05 ± 1.3e-05 s⁻¹ | 
12 | C16G A33G | < 1e-05 s⁻¹ |  |  |  | < 1e-05 s⁻¹ |  | 
13 | G29C A39U | 0.00205 ± 0.00072 s⁻¹ | 0.000323 ± 6.3e-05 s⁻¹ | 0.000753 ± 0.00014 s⁻¹ | 0.00153 ± 0.00022 s⁻¹ | 5.54e-05 ± 1.3e-05 s⁻¹ | 6.75e-05 ± 1.6e-05 s⁻¹ | 
14 | A15U C68G | 4.37e-05 ± 1e-05 s⁻¹ | 2.81e-05 ± 1.4e-05 s⁻¹ | 4.48e-05 ± 1e-05 s⁻¹ |  |  |  | 
15 | A15U C68U | 0.000466 ± 3e-05 s⁻¹ | 0.000127 ± 9.9e-06 s⁻¹ | 0.000277 ± 2.2e-05 s⁻¹ | 0.000409 ± 2.7e-05 s⁻¹ | 1.92e-05 ± 9.6e-06 s⁻¹ | 4.94e-05 ± 7.4e-06 s⁻¹ | 1610 ± 210 µM
16 | A15U C68A | 2.71e-05 ± 1e-05 s⁻¹ |  | 3.7e-05 ± 1.7e-05 s⁻¹ |  |  |  | 
17 | C16A C68A | 1.91e-05 ± 5.8e-06 s⁻¹ |  |  |  |  |  | 
